Experimental findings from the supplement of paper PMC12764529 are described below.

A short description of data set [1]: folding stability dG unfold from trypsin proteolysis; higher = more stable. Here is the method: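 Folding stability of de novo designed mini-proteins (<80 aa, no Cys; designed by TrROS, TrMRF, ProteinMPNN and the joint model) was measured by cDNA display proteolysis with trypsin and chymotrypsin. Each protease was used at 11 concentrations in a threefold dilution series plus a no-protease condition. K50 was inferred by Bayesian fitting of sequencing counts, and dG unfold was derived against a sequence-predicted unfolded-state K50 (Tsuboyama et al. method). Sequences shown include variable-length N-terminal GS-type padding (SAGGSAGG...) inside a display construct carrying a PA tag. Rows were kept only if the AF2 dimer inter-PAE was >15, to exclude likely homo-oligomers.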

Data set [2] can be described thus: folding stability dG unfold (combined trypsin and chymotrypsin); higher = more stable. The procedure, abridged:
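Digests were run with trypsin and chymotrypsin at 11 concentrations in threefold dilutions, plus a no-protease condition, on designed mini-proteins in a PA-tagged cDNA display construct. The mini-proteins were under 80 residues, had no cysteine, and were kept only when AlphaFold2 dimer inter-PAE was above 15. After sequencing, Bayesian fitting of the counts gave K50, from which unfolding free energy was derived against a sequence-predicted unfolded-state K50 and a shared folded-state K50, per protease or combined.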

± gives the half width of the 95% confidence interval.

In the case of “SAGGSAGGSAGGRITINPENGMVQIKGPNGNQHTFPMDDASELQKEFGLPNIDIEVFPPNSAGGSAGGSAGG [r7_235_TrROS]”, the “folding stability dG unfold” value was 0.292 ± 0.15 kcal/mol in data set [1] and -0.145 ± 0.22 kcal/mol in data set [2].

Take “SAGGSAGGSAGGSEPWYVRIQIPDGNQIMFPPGSEAKIEIPKEEKDIRITEVIPADDIKSAGGSAGGSAGGS [r4_122_TrROS]”: the results for the “folding stability dG unfold” value in data set [1] and in data set [2] were 0.0224 ± 0.13 kcal/mol and less than -1 kcal/mol, respectively.

Consider “SAGGSAGGSAGGSERHTAVLVDTGFRISPAPEEGGLRLEAGASLTIREVPEDALKEVLGSAGGSAGGSAGGS [r4_274_TrMRF]”, for which the entries for the “folding stability dG unfold” value in data set [1] and in data set [2] were -0.398 ± 0.26 kcal/mol and less than -1 kcal/mol, respectively.

Consider “SAGGSAGGSAGGSKKTAVLKVGDKWIPLEIDEDKVTLIYPDGKKEEISLEDIPENTISDASAGGSAGGSAGG [r7_748_TrMRF]”, for which the “folding stability dG unfold” value in data set [1] was 0.0901 ± 0.064 kcal/mol; in data set [2], -0.212 ± 0.11 kcal/mol.

Turning to “SAGGSAGGSAGGSMAIPVYLKIENKVLTSLDELKEAVESGKPIEIERIEAFDLSPDEEVSAGGSAGGSAGGS [r4_479_TrMRF]”, the “folding stability dG unfold” value was -0.74 ± 0.35 kcal/mol in data set [1] and less than -1 kcal/mol in data set [2].

Regarding “SAGGSAGGSAGGSMPLRKVTVSRPDSTLEFEFPESVPEEEVKEKLKKEYPNAEVKVEPESAGGSAGGSAGGS [r4_155_JUSTAS]”, the “folding stability dG unfold” value in data set [1] was -0.633 ± 0.25 kcal/mol; in data set [2], less than -1 kcal/mol.

Turning to “SAGGSAGGSAGGSMVLYERVPASELPPGKGETLLIREVTVEKLPGNRIILNEGVKVIPPSAGGSAGGSAGGS [r4_444_JUSTAS]”, the “folding stability dG unfold” value in data set [1] is -0.186 ± 0.15 kcal/mol; in data set [2] it was -0.831 ± 0.24 kcal/mol.

In the case of “SAGGSAGGSAGGVPEEEIRERVEAAGLTAPDAEVVYETPENITVRVTVPPTGLVFERLESAGGSAGGSAGGS [r10_604_JUSTAS]”, the “folding stability dG unfold” value in data set [1] was 0.0893 ± 0.048 kcal/mol; in data set [2], -0.367 ± 0.1 kcal/mol.

As for “SAGGSAGGSAGGVRIRPPNGEWIRIDNAPDDEDIKDKLKKHPNVKPEIDPDTNEAWIPVSAGGSAGGSAGGS [r10_792_TrROS]”, the “folding stability dG unfold” value in data set [1] is -1.09 ± 0.42 kcal/mol; in data set [2], less than -1 kcal/mol.

For “SAGGSAGGSAGGYKVKVYNPENGKPQEIPLPPNDIPELLDKLPNGPWWIRVKDPDRWIPLSAGGSAGGSAGG [r7_188_TrROS]”, the results for the “folding stability dG unfold” value in data set [1] and in data set [2] were -1.05 ± 0.51 kcal/mol and -0.562 ± 0.57 kcal/mol, respectively.

“SAGGSAGGSAGIPNLIAYEVSKEGKPVKIIVKSPNGEEYEITVSPNESIPENIEILKVEVGSAGGSAGGSAG [r3_421_TrMRF]”: the “folding stability dG unfold” value is 0.685 ± 0.034 kcal/mol in data set [1] and -0.0441 ± 0.15 kcal/mol in data set [2].

Take “SAGGSAGGSAGITIEFPEEENNFRVENPNDGKKHEIPGTPDEIKEYALDKFPGRPIKIHPSAGGSAGGSAGG [r11_614_TrROS]”: the “folding stability dG unfold” value in data set [1] is 0.11 ± 0.079 kcal/mol; in data set [2], -0.511 ± 0.43 kcal/mol.

As for “SAGGSAGGSAGKIKAYAEKDVPAEIVAKAIEEEIREAFPDNPEEIKGIEVEPDGFLSETISAGGSAGGSAGG [r17_43_TrMRF]”, the “folding stability dG unfold” value in data set [1] was -0.636 ± 0.15 kcal/mol; in data set [2], less than -1 kcal/mol.

Regarding “SAGGSAGGSAGKVKVKVESNPDGTLIIAEEFEDFVVIVELKVDDDGIHFHPHPVVLSKELSAGGSAGGSAGG [r17_72_TrMRF]”, the “folding stability dG unfold” value was 0.0484 ± 0.1 kcal/mol in data set [1] and -0.695 ± 0.38 kcal/mol in data set [2].

Turning to “SAGGSAGGSAGLVKLKDKNGKLITLEVKEVEVVEVKEVTLKPKPKPKKTLKLSEEELKKLSAGGSAGGSAGG [r17_484_TrROS_Hall]”, the “folding stability dG unfold” value in data set [1] was -0.143 ± 0.075 kcal/mol; in data set [2], -0.494 ± 0.25 kcal/mol.

As to “SAGGSAGGSAGMEIEVEVDPSTNTVKLTKKIGGKWVEATVTRTPGTGTITLPDGSTLKLTSAGGSAGGSAGG [r11_395_JUSTAS]”, the “folding stability dG unfold” value in data set [1] was -0.709 ± 0.47 kcal/mol; in data set [2], less than -1 kcal/mol.

As for “SAGGSAGGSAGMEIPEDWTVVEESEVPDERLVTVHNPKTGELYVVTQPPATGEETVERYLSAGGSAGGSAGG [r11_896_JUSTAS]”, the entries for the “folding stability dG unfold” value in data set [1] and in data set [2] were 0.0248 ± 0.2 kcal/mol and less than -1 kcal/mol, respectively.

With “SAGGSAGGSAGMILTEEVTVAVPTLSTADGTRHTTTVPELVVVELKLPPVPPEAVEKLLASAGGSAGGSAGG [r11_318_JUSTAS]”, the “folding stability dG unfold” value in data set [1] is -0.0441 ± 0.019 kcal/mol; in data set [2] it was -0.887 ± 0.16 kcal/mol.
